Laboratory results reported in patent publication US12729368B2, “Methods and compositions for generating oligodendrocyte progenitor cells” (Trailhead Biosystems Inc., priority 2022, dated 2026).
“And” between values parts separate entries of the source, which are not always exact repeats. Equal entries are not always repeated.

B1: Activin A: an activator of one of the receptors of TGF-b superfamily (protein, UniProt P08476 311-426, looked up)
Inhibin beta A chain: GLECDGKVNICCKKQFFVSFKDIGWNDWIIAPSGYHANYCEGECPSHIAGTSGSSLSFHSTVINHYRMRGHSPFANLKSCCVPTKLRPMSMLYYDDGQNIIKKDIQNMIVEECGCS
B2: NT-3: TrkC agonist (protein, UniProt P20783 139-257, looked up)
Neurotrophin-3: YAEHKSHRGEYSVCDSESLWVTDKSSAIDIRGHQVTVLGEIKTGNSPVKQYFYETRCKEARPVKNGCRGIDDKHWNSQCKTSQTYVRALTSENNKLVGWRWIRIDTSCVCALSRKIGRT

Legend:
Format in all cases: cell-based, human
[1] = test system: stage 2 early-OPCs; assay: HD-DoE 8-factor model for stage 3 (version 1) on stage 2 early-OPCs; conditions: optimized for maximum expression of OLIG1 at 256; positive impact
Description: To further differentiate the cells to an oligodendrocyte progenitor identity, additional HD-DoE experiments were performed on the cells that were cultured in stage 1 and stage 2 differentiation media. After 3 days, gene expression of cells in different combinatorial conditions were investigated. At this time, we focused on maximal expression of signature oligodendrocyte progenitor genes such as SOX10, OLIG1 and PDGFRa (Goldman and Kuypers (2015) Development 142:3983-95; Marques et al. (2016) Science 352:1326-1329). In one 8-factor model, individual and combinatorial effects of LDN193189, SUN 11602, Activin A, Biotin, TTNPB, Isoproterenol, linoleic acid and T3+T4 were tested.
The same model was also optimized for maximum expression of PDGFRa at 3510.9. Two factor specifically, TTNPB and Linoleic acid determined the expression level of PDGFRa with factor contribution of 71.6 and 22.1, respectively (FIG. 17). […] The model was also optimized for highest expression of SOX10 at 18.8. In this optimization, TTNPB was the only input that could elevate the expression level of the selected gene (FIG. 18).
Dynamic profile analysis was utilized to explore combination sets that can optimize expression of all three selected genes. […]

[2] = test system: stage 2 early-OPCs; assay: HD-DoE 12-factor model for stage 3 (version 1) on stage 2 early-OPCs; conditions: positive
Description: In another model, the effects of Activin A and TTNPB along with LDN193189, MHY1485, PDGF-AA, AICAR, FGF2, CHIR99021, DBZ, MK2206, Purmorphamine and T3+T4 were tested on gene profile of differentiating cells. When this model was optimized for maximum expression of SOX10 at 54.7, we observed Activin A again had positive regulatory impact on its expression, with factor contribution of 4.7. Other positive factors included MK2206, with the highest factor contribution at 16.2, MHY1485 at 11.49, CHIR99021 at 9.6, DBZ at 9.3, FGF2 at 3.6 and PDGF-AA, with factor contribution less than 3 (FIG. 20).
In this model, we also investigated the conditions of expression of another important OPC gene, CSPG4 (Goldman and Kuypers (2015) Development 142:3983-95: van Tilborg et al. (2018) Glia 66:221-238).
Dynamic profile analysis was used to better assess the impact of the factors on our selected genes and find the combination set that can optimize their expression (FIG. 22). According to this analysis, even though Activin A has a positive effect on SOX10, it decreases level of PDGFRa and OLIG1. […]

[3] = test system: OPCs; assay: HD-DoE 8-factor model for stage 4 on OPCs; conditions: optimized for maximal expression of CNP at 1339; positive
Description: (§1) To engineer the recipe of stage 4 of differentiation, 48 or 96 different combinations of effectors generated using Design-of-Experiments compression through D-optimality were robotically prepared. The effector combinations were prepared in a basal media and were subsequently added to the cells, which were treated with the stage 1, stage 2 and stage 3 differentiation media as described in the earlier examples to generate OPCs. […] Solutions within the tested space could then be explored to address desirability.

[4] = test system: OPCs; assay: HD-DoE 12-factor model for stage 4 on OPCs, 6 days in culture; conditions: positive
Description: as §1, with “desirability. […] Benarroch (2009) Neurology 72:1779-1785; Shi et al. (2019) Exp Ther Med, 18:1258-1266).” for “desirability.”

Molecule	factor contribution [1]	factor contribution ([2]; optimized for maximum expression of CSPG4 at 38.6)	factor contribution ([2]; optimized for maximum expression of SOX10 at 54.7)	factor contribution [3]	factor contribution ([4]; optimized for CNP at 1790)	factor contribution ([4]; optimized for PLP1 at 3600)
B1	50.2	9.3	4.7			
B2				24	13 and 13.3	7
